This assay concerns the target zFGF5 (human) (UniProt O76093). Kind of assay: cell-based or functional assay.

Sequence of zFGF5 (human) (O76093 28-207): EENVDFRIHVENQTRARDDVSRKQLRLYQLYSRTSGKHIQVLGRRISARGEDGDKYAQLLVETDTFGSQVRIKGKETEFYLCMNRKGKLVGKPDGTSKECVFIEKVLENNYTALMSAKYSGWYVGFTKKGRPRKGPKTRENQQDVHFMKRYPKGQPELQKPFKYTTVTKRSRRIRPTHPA

On to “FGFR2α-IIIb/Fc (from UniProt P21802 22-378) (Fc fusion)”, for which the Cell Proliferation (percent of control), BAF3/FGFR3α-IIIc cells with zFGF5, soluble receptor at 0 fold-excess (percent of control) is 100; the Cell Proliferation (percent of control), BAF3/FGFR3α-IIIc cells with zFGF5, soluble receptor at 62.5 fold-excess (percent of control) amounted to 101; the Cell Proliferation (percent of control), BAF3/FGFR3α-IIIc cells with zFGF5, soluble receptor at 125 fold-excess (percent of control) was 90; the Cell Proliferation (percent of control), BAF3/FGFR3α-IIIc cells with zFGF5, soluble receptor at 250 fold-excess (percent of control) is 91. In addition, the Cell Proliferation (percent of control), BAF3/FGFR3α-IIIc cells with zFGF5, soluble receptor at 500 fold-excess (percent of control) worked out at 101 and the Cell Proliferation (percent of control), BAF3/FGFR3α-IIIc cells with zFGF5, soluble receptor at 1000 fold-excess (percent of control) turned out to be 99.

The values above are taken from US20050043234A1.
